Substitutions are numbered along the chain they refer to. Names and notes keep the numbering of the source.
B1: FLP136: PfHPPD variant P215L, E335P, G336F (protein)
chain: MADLYENPMGLMGFEFIEFASPTPGTLEPIFEIMGFTKVATHRSKNVHLYRQGEINLILNNEPNSIASYFAAEHGPSVCGMAFRVKDSQKAYNRALELGAQPIHIDTGPMELNLPAIKGIGGAPLYLIDRFGEGSSIYDIDFVYLEGVERNPVGAGLKVIDHLTHNVYRGRMVYWANFYEKLFNFREARYFDIKGEYTGLTSKAMSAPDGMIRILLNEESSKGAGQIEEFLMQFNGEGIQHVAFLTDDLVKTWDALKKIGMRFMTAPPDTYYEMLEGRLPDHGEPVDQLQARGILLDGSSVEGDKRLLLQIFSETLMGPVFFEFIQRKGDDGFGPFNFKALFESIERDQVRRGVLTAD
modifications: HPPD variant - FLP136
notes: PfHPPD variant P215L, E335P, G336F
B2: FLP202: PfHPPD variant P215L, E335P, G336F, A340E (protein)
chain: B1 chain with A340E
modifications: HPPD variant - FLP202
notes: PfHPPD variant P215L, E335P, G336F, A340E

What was measured:
[1] = test system: Pseudomonas fluorescens HPPD protein; test: HGD assay: HPPD activity coupled to HGA dioxygenase, pI50 and type of inhibition (time-course); format: biochemical; settings: for tolerance (pI50) Cmpd. 1: inhibitor Cmpd. 1; for tolerance (pI50) Cmpd. 1 / tolerance (pI50) Cmpd. 2 / tolerance (pI50) Cmpd. 3 / tolerance (pI50) Cmpd. 4 / tolerance (pI50) Cmpd. 5 / tolerance (pI50) DKN / tolerance (pI50) MST / tolerance (pI50) TBT: HGD assay; for tolerance (pI50) Cmpd. 2: inhibitor Cmpd. 2; for tolerance (pI50) Cmpd. 3: inhibitor Cmpd. 3; for tolerance (pI50) Cmpd. 4: inhibitor Cmpd. 4; for tolerance (pI50) Cmpd. 5: inhibitor Cmpd. 5; for tolerance (pI50) DKN: inhibitor diketonitrile (DKN); for tolerance (pI50) MST: inhibitor mesotrione (MST); for tolerance (pI50) TBT: inhibitor tembotrione (TBT)
Method in brief: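 Purified Pseudomonas fluorescens HPPD, room temperature. OD assay: 50 mM Tris-HCl pH 7.8, 0.5 mM HPP, 10 mM ascorbate, catalase, 24 min, remaining HPP derivatised with DNP, read at 405 nm, inhibitor 5.0×10^−6 to 5.0×10^−4 M. HGD assay: 200 mM Tris-HCl pH 7.6, 600 μM HPP, 20 μM FeSO4, coupled HGA dioxygenase, initial rates at 318 nm, inhibitor ≤100 μM, time-course gives inhibition type; pI50 from 4-parameter fits.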

[2] = test system: T0 soybean plants; test: greenhouse spray test of T0 soybean plants for tolerance to mesotrione; format: in vivo; settings: mesotrione 3X field rate, 316 grams AI per hectare, seven days after treatment
Procedure: T0 soybean plants expressing an HPPD inhibitor tolerant enzyme of the present invention, along with a gene conferring tolerance to glyphosate and a gene conferring tolerance to glufosinate or having a “plant expression cassette”, which includes only an HPPD inhibitor tolerant enzyme of the present invention, were tested for tolerance to mesotrione. Prior greenhouse trials with the transgenic plants, soy transformants were routinely analyzed for the expression and presence of the transgenes using the ELISA protein detection method (see detailed description under item D and H). Only plants recovering in the selection media and having a detectable HPPD transgene protein expression were used for the herbicide tolerance analysis. A DeVries Tracker Sprayer was calibrated prior to each spraying. The chemical formulation used for mesotrione (MST) testing was Callisto® 4 SC formulation supplemented with ammonium sulfate and methylated rape seed oil (Actirob). Spray tests were conducted using 3× the field rate (equivalent to 9 fluid ounce per acre of the same herbicide formulation that containing 40% the active ingredient (AI), mesotrione), which equals 316 grams AI per hectare. Tolerance was evaluated one week after spraying. […] A tolerance rating of “0” was assigned to plants that their shoot apexes, newly emerged trifoliates and some axillary buds were completely bleached. A rating of “1” was assigned to plants having slight tolerance, i.e., the newest plant shoot tissues had some green leaves and are not bleached completely. A rating of “2” was assigned to plants showing moderate tolerance, i.e., more than 50% of the leaf area of the top three trifoliates showing no chlorosis or bleaching damage. A rating of “3” was assigned to plants showing nearly perfect tolerance, i.e., less than 10% of the leaf area showing chlorosis or very slight bleaching.

[3] = HT-single plant expression cassette
[4] = HT-triple plant expression cassette

Molecule | mechanism of inhibition by diketonitrile (DKN), time-course of inhibition [1] | mechanism of inhibition by mesotrione (MST), time-course of inhibition [1] | mechanism of inhibition by tembotrione (TBT), time-course of inhibition [1] | tolerance (pI50) Cmpd. 1 [1] | tolerance (pI50) Cmpd. 2 [1] | tolerance (pI50) Cmpd. 3 [1] | tolerance (pI50) Cmpd. 4 [1] | tolerance (pI50) Cmpd. 5 [1] | tolerance (pI50) DKN [1] | tolerance (pI50) MST [1] | tolerance (pI50) TBT [1] | Number of T0 soybean plants with herbicide tolerance rating 0 (completely bleached) [2, 3] | Number of T0 soybean plants with herbicide tolerance rating 1 (slight tolerance) [2, 3] | Number of T0 soybean plants with herbicide tolerance rating 2 (moderate tolerance) [2, 3] | Number of T0 soybean plants with herbicide tolerance rating 3 (nearly perfect tolerance) [2, 3] | Number of T0 soybean plants with herbicide tolerance rating 0 (completely bleached) [2, 4] | Number of T0 soybean plants with herbicide tolerance rating 1 (slight tolerance) [2, 4] | Number of T0 soybean plants with herbicide tolerance rating 2 (moderate tolerance) [2, 4] | Number of T0 soybean plants with herbicide tolerance rating 3 (nearly perfect tolerance) [2, 4]
B1 | fully reversible inhibitors | fully reversible inhibitors | fully reversible inhibitors | 5.6 | 5.9 | 5.6 | 6.0 | 5.6 | 4.0 | 4.5 | 5.3 | 4 | 10 | 41 | 20 | 4 | 17 | 33 | 19
B2 | fully reversible inhibitors | fully reversible inhibitors | fully reversible inhibitors | 4.1 | 4.7 | 4.3 | 5.7 | 4.3 | <4 | <4 | 4.2 | 2 | 21 | 37 | 18 | 7 | 8 | 10 | 14

Reference: patent publication US10400249B2, “HPPD variants and methods of use” (priority 2014, dated 2019)
